Laboratory results as given in patent US20260116944A1, “NOVEL TRIPLE GLP-1/GIP/GLUCAGON RECEPTOR AGONIST AND A PHARMACEUTICAL COMPOSITION FOR PREVENTING OR TREATING OBESITY COMPRISING THE SAME” (HANMI PHARM. CO., LTD., priority 2022, published 2026).
Values belong to the binder of their own block, whether it stands above or below them. *1 amine or outer side, *2 acyl side, *3 side chain or, on linkers, in order; H or OH if unused. Bridges are numbered along the chain shown (N, C = ends). Where no end group is shown, it is not given here. Side-chain parts run from the residue outwards. [ ]: non-standard residue; d: D form. The star is where a group is joined. C18 diacid = O=C(O)CCCCCCCCCCCCCCCCC(=O)*; γGlu = O=C(O)[C@H](CCC(=O)[*:2])N[*:1]; AEEA = NCCOCCOCC(=O)O; Aib = CC(C)(N)C(=O)O

How the values were obtained:
Assay in all cases: cell-based or functional assay
human GLP-1 receptor = human GLP-1 receptor (human, UniProt P43220 24-463)
human GCG receptor = human GCG receptor (human, UniProt P47871 26-477)
human GIP receptor = molecular target: T1, human GIP receptor (human, UniProt P48546 22-466)
T1 sequence (looked up): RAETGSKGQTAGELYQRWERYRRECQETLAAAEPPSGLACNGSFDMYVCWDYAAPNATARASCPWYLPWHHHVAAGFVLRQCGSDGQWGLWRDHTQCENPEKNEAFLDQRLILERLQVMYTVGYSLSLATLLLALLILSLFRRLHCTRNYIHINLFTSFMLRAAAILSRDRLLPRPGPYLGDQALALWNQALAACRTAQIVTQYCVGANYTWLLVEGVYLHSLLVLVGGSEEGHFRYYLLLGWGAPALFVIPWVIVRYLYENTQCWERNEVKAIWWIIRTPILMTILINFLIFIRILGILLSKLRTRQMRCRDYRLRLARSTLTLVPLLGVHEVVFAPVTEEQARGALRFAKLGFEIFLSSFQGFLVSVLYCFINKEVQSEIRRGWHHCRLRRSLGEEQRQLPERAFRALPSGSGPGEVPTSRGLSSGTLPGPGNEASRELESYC

Sequence of human GCG receptor (P47871 26-477): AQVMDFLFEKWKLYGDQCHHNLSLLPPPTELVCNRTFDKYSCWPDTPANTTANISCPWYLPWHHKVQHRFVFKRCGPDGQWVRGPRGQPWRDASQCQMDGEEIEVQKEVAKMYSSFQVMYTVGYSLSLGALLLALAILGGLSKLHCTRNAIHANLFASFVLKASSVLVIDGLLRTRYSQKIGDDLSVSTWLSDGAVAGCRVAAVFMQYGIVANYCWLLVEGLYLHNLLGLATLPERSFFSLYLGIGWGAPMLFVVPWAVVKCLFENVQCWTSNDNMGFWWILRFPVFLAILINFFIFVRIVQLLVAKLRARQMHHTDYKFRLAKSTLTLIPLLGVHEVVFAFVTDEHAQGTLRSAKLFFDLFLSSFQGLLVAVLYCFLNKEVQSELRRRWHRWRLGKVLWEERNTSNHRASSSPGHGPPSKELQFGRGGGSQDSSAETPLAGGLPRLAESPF

In vitro Activity Compared to Native Peptide (%) vs. GLP-1 (relative titer from cAMP EC50) (human GLP-1 receptor): 15 % of human GLP-1 | In vitro Activity Compared to Native Peptide (%) vs. Glucagon (relative titer from cAMP EC50) (human GCG receptor): 0.51 % of human GCG | In vitro Activity Compared to Native Peptide (%) vs. GIP (relative titer from cAMP EC50) (human GIP receptor): 8.42 % of human GIP
B1: triple agonist of SEQ ID NO: 9 (peptide)
peptide: Y[Aib]QGTFTSDYSK([AEEA-AEEA-γGlu-C18 diacid])YLDEKAAKEFVQWLLDHHPSSGQPPPS-NH2
modifications: lactam 16-20; N-terminus assumed
SMILES: CC(C)C[C@H](NC(=O)[C@H](Cc1ccc(O)cc1)NC(=O)[C@H](CCCCNC(=O)COCCOCCNC(=O)COCCOCCNC(=O)CC[C@H](NC(=O)CCCCCCCCCCCCCCCCC(=O)O)C(=O)O)NC(=O)[C@H](CO)NC(=O)[C@H](Cc1ccc(O)cc1)NC(=O)[C@H](CC(=O)O)NC(=O)[C@H](CO)NC(=O)[C@@H](NC(=O)[C@H](Cc1ccccc1)NC(=O)[C@@H](NC(=O)CNC(=O)[C@H](CCC(N)=O)NC(=O)C(C)(C)NC(=O)[C@@H](N)Cc1ccc(O)cc1)[C@@H](C)O)[C@@H](C)O)C(=O)N[C@@H](CC(=O)O)C(=O)N[C@H]1CCC(=O)NCCCC[C@@H](C(=O)N[C@@H](CCC(=O)O)C(=O)N[C@@H](Cc2ccccc2)C(=O)N[C@H](C(=O)N[C@@H](CCC(N)=O)C(=O)N[C@@H](Cc2c[nH]c3ccccc23)C(=O)N[C@@H](CC(C)C)C(=O)N[C@@H](CC(C)C)C(=O)N[C@@H](CC(=O)O)C(=O)N[C@@H](Cc2c[nH]cn2)C(=O)N[C@@H](Cc2c[nH]cn2)C(=O)N2CCC[C@H]2C(=O)N[C@@H](CO)C(=O)N[C@@H](CO)C(=O)NCC(=O)N[C@@H](CCC(N)=O)C(=O)N2CCC[C@H]2C(=O)N2CCC[C@H]2C(=O)N2CCC[C@H]2C(=O)N[C@@H](CO)C(N)=O)C(C)C)NC(=O)[C@H](C)NC(=O)[C@H](C)NC(=O)[C@H](CCCCN)NC1=O

In vitro Activity Compared to Native Peptide (%) vs. GLP-1 (relative titer from cAMP EC50) (human GLP-1 receptor): 9.68 % of human GLP-1 | In vitro Activity Compared to Native Peptide (%) vs. Glucagon (relative titer from cAMP EC50) (human GCG receptor): 5.89 % of human GCG | In vitro Activity Compared to Native Peptide (%) vs. GIP (relative titer from cAMP EC50) (human GIP receptor): 4.89 % of human GIP
B2: triple agonist of SEQ ID NO: 8 (peptide)
peptide: Y[Aib]QGTFTSDYSK([AEEA-AEEA-γGlu-C18 diacid])YLDEKRAKEFVQWLLDHHPSSGQPPPS-NH2
modifications: lactam 16-20; N-terminus assumed
SMILES: CC(C)C[C@H](NC(=O)[C@H](Cc1ccc(O)cc1)NC(=O)[C@H](CCCCNC(=O)COCCOCCNC(=O)COCCOCCNC(=O)CC[C@H](NC(=O)CCCCCCCCCCCCCCCCC(=O)O)C(=O)O)NC(=O)[C@H](CO)NC(=O)[C@H](Cc1ccc(O)cc1)NC(=O)[C@H](CC(=O)O)NC(=O)[C@H](CO)NC(=O)[C@@H](NC(=O)[C@H](Cc1ccccc1)NC(=O)[C@@H](NC(=O)CNC(=O)[C@H](CCC(N)=O)NC(=O)C(C)(C)NC(=O)[C@@H](N)Cc1ccc(O)cc1)[C@@H](C)O)[C@@H](C)O)C(=O)N[C@@H](CC(=O)O)C(=O)N[C@H]1CCC(=O)NCCCC[C@@H](C(=O)N[C@@H](CCC(=O)O)C(=O)N[C@@H](Cc2ccccc2)C(=O)N[C@H](C(=O)N[C@@H](CCC(N)=O)C(=O)N[C@@H](Cc2c[nH]c3ccccc23)C(=O)N[C@@H](CC(C)C)C(=O)N[C@@H](CC(C)C)C(=O)N[C@@H](CC(=O)O)C(=O)N[C@@H](Cc2c[nH]cn2)C(=O)N[C@@H](Cc2c[nH]cn2)C(=O)N2CCC[C@H]2C(=O)N[C@@H](CO)C(=O)N[C@@H](CO)C(=O)NCC(=O)N[C@@H](CCC(N)=O)C(=O)N2CCC[C@H]2C(=O)N2CCC[C@H]2C(=O)N2CCC[C@H]2C(=O)N[C@@H](CO)C(N)=O)C(C)C)NC(=O)[C@H](C)NC(=O)[C@H](CCCNC(=N)N)NC(=O)[C@H](CCCCN)NC1=O
